For five compounds, Ki, logD and IC50 results are on record in article PMC12058244, “Design and Synthesis of ^68Ga‐Labeled Peptide‐Based Heterodimers for Dual Targeting of NTS1 and GRPR” (Chemmedchem, 2025).

Data set [1] deals with NTS1. The conditions noted are these: cited from earlier work. The protocol:
The design of novel heterodimers was based on SAR studies. […] For this reason, the NT analogue JMV 438 ([Lys^8–Lys^9]NT[8–13]) was widely studied and validated as a positive control (NTS1 K i=4.0 nM, Chart 1).[19] Recently, in the attempt to improve the binding affinity towards NTS1, lipophilic residues were incorporated in the NT[8–13] sequence.[20] Among the new analogues, JMV 2007 (Chart 1), in which a trimethylsilylala ...

Data set [2] can be described thus: Octanol/water partition coefficient (LogD7.4). It is filed as physicochemical. The method, then: Determination of the Octanol/Water Partition Coefficient (LogD7.4) LogD determination was performed in triplicate and repeated over three radiolabelings. Approximately 3.7 MBq of the ^68Ga‐radiolabeled peptide were added to qsp 500 μL of PBS (Gibco, France, pH=7.4) and 500 μL of octanol (Sigma Aldrich, USA) in microcentrifuge tubes. Tubes were shaken then vortexed and centrifuged at room temperature (3 min, 4000 rpm). 100 μL of each layer were sampled in separate test tubes and measured in a gamma‐counter (Wizard2, PerkinElmer, USA). LogD7.4 value was obtained by calculating the log10 of the ratio between the organic phase activity (cpm) and the aqueous phase activity (cpm). Both activities were decay‐corrected.

Read-outs that look alike come from different tables or passages of the source.

Broadly, the Ki is the dissociation constant of the complex between target and ligand, obtained from inhibition or displacement. With [Lys^8–Lys^9]NT[8–13] [JMV 438], the Ki in data set [1] was 4 nM.

Turning to `CC[C@H](C)[C@H](NC(=O)[C@H](Cc1ccc(O)cc1)NC(=O)[C@@H]1CCCN1C(=O)[C@H](CCCCN)NC(=O)[C@H](CCCCN)NC(=O)CCNC(=O)[C@H](CCC(=O)NCCC(=O)NCCC(=O)N[C@H](Cc1ccccc1)C(=O)N[C@@H](CCC(N)=O)C(=O)N[C@@H](Cc1c[nH]c2ccccc12)C(=O)N[C@@H](C)C(=O)N[C@H](C(=O)NCC(=O)N[C@@H](Cc1c[nH]cn1)C(=O)N[C@@H](CC(C)C)[C@@H](O)CC(=O)N[C@@H](CC(C)C)C(N)=O)C(C)C)NC(=O)CCNC(=O)CN1CCN(CC(=O)O)CCN(CC(=O)O)CCN(CC(=O)O)CC1)C(=O)N[C@@H](CC(C)C)C(=O)O` [[^68Ga]Ga‐JMV 7266, metal not drawn], the logD in data set [2] (pH 7.4) was -2.62 ± 0.13.

`CC[C@H](C)[C@H](NC(=O)[C@H](Cc1ccc(O)cc1)NC(=O)[C@@H]1CCCN1C(=O)[C@H](CCCCN)NC(=O)[C@H](CCCCN)NC(=O)CCNC(=O)CCNC(=O)[C@H](CC(C)C)NC(=O)C[C@H](O)[C@H](CC(C)C)NC(=O)[C@H](Cc1c[nH]cn1)NC(=O)CNC(=O)[C@@H](NC(=O)[C@H](C)NC(=O)[C@H](Cc1c[nH]c2ccccc12)NC(=O)[C@H](CCC(N)=O)NC(=O)[C@@H](Cc1ccccc1)NC(=O)CCNC(=O)CCNC(=O)CN1CCN(CC(=O)O)CCN(CC(=O)O)CCN(CC(=O)O)CC1)C(C)C)C(=O)N[C@@H](CC(C)C)C(=O)O` [[^68Ga]Ga‐JMV 7110, metal not drawn]: the logD in data set [2] (pH 7.4) is -2.74 ± 0.21.

Turning to `CC[C@H](C)[C@H](NC(=O)[C@H](Cc1ccc(O)cc1)NC(=O)[C@@H]1CCCN1C(=O)[C@H](CCCCN)NC(=O)[C@H](CCCCN)NC(=O)CCNC(=O)CCNC(=O)[C@H](CC(C)C)NC(=O)C[C@H](O)[C@H](CC(C)C)NC(=O)[C@H](Cc1c[nH]cn1)NC(=O)CNC(=O)[C@@H](NC(=O)[C@H](C)NC(=O)[C@H](Cc1c[nH]c2ccccc12)NC(=O)[C@H](CCC(N)=O)NC(=O)[C@@H](Cc1ccccc1)NC(=O)CCNC(=O)CCNC(=O)CN1CCN(CC(=O)O)CCN(CC(=O)O)CCN(CC(=O)O)CC1)C(C)C)C(=O)N[C@@H](C[Si](C)(C)C)C(=O)O` [[^68Ga]Ga‐JMV 7253, metal not drawn], in data set [2] (shake-flask octanol/PBS (Gibco) pH 7.4, 500 μL each, ~3.7 MBq 68Ga-peptide, room temperature, centrifuged 3 min 4000 rpm, gamma-counter, triplicate repeated over three radiolabelings, mean±SD, read-out: LogD7.4), the logD was -2.46 ± 0.07.

Broadly, the IC50 is the concentration that inhibits the measured activity by half. Regarding “[Lys^8‐Lys^9‐TMSAla^13]NT[8–13] [JMV 2007, NT[8-13] analogue with TMSAla at position 13]”, the IC50 in data set [1] was 0.02 nM.
